These results are taken from patent US20140018290A1 (Novo Nordisk, published 2014).

The IC50 is the concentration that inhibits the measured activity by half. Low readings indicate inhibition by little substance, high ones a need for much substance.

Test [1] addresses T1, human Leptin receptor (human, UniProt P48357 22-1165).
T1 sequence (looked up): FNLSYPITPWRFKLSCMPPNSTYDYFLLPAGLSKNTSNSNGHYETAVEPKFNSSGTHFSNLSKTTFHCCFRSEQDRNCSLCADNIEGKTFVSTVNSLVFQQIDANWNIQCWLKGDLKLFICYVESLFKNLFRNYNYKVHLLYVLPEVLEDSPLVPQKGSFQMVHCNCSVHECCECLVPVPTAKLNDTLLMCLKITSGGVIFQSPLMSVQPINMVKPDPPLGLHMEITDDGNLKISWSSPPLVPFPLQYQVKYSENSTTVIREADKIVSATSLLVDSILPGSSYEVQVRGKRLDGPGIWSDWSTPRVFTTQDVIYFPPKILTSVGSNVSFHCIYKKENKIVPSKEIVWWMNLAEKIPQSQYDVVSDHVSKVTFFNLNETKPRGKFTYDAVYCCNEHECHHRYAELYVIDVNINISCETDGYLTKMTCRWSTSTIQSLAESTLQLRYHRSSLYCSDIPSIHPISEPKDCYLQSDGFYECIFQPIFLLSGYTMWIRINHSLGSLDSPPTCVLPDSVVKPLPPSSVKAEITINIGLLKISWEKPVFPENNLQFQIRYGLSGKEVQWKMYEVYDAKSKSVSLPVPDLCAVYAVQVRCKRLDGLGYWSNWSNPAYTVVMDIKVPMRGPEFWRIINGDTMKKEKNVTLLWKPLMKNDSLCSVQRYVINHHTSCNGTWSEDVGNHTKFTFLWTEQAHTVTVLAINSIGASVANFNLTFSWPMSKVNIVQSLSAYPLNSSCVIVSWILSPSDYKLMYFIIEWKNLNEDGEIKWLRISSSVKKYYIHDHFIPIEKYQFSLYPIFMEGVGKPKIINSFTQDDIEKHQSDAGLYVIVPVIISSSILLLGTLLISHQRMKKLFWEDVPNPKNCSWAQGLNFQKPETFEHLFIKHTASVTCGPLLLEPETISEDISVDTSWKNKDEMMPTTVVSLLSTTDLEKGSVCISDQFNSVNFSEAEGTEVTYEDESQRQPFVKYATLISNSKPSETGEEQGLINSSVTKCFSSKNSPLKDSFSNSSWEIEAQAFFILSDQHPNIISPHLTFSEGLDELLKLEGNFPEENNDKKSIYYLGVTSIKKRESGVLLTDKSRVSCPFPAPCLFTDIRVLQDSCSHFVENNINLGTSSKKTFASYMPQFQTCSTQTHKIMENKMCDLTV
As to the kind of experiment: cell-based or functional assay.

The target in test [2] is T1, human Leptin receptor. As to the kind of experiment: SPA, displacement of human [125I]-Leptin from human Leptin receptor membranes, 0% HSA added; mean, n=3. How it is done: (§1) Human Leptin receptor SPA binding assay were performed in white 96-well plates in a total volume of 200 μl per well. Wheat germ agglutinin coated beads containing scintillation liquid were reconstituted in binding buffer (50 mM Hepes, 1 mM CaCl₂, 5 mM MgCl₂, 0.02% Tween 20, 0.25% Ovalbumin pH 7.4) and mixed with membrane preparation to give final concentration of 1 mg beads and 10 μg total protein per well. 50.000 cpm per well of radio ligand human [¹²⁵I]-Leptin was added corresponding to a concentration of approximately […]. Human serum albumin was added to a final concentration of 2% when binding in presence of albumin was investigated. Freeze dried Leptin analogues were dissolved in PBS to 100 μM and serial diluted in binding buffer to give a final assay concentration ranging from 100 nM to […]. The plate was sealed and incubated at +25° C. for 2 hours in a plate shaker set at 400 rpm and thereafter centrifuged at 1500 rpm for 10 minutes prior to reading of luminescence on a microplate scintillation and luminescence counter. Displacement of radioligand was measured as reduction in luminescence and IC₅₀ values were calculated by nonlinear regression analysis of sigmoidal dose-response curves.

Test [3] addresses T1, human Leptin receptor. As to the kind of experiment: SPA, displacement of human [125I]-Leptin from human Leptin receptor membranes, 2% HSA added; mean, n=3. As to the method: as §1
Test [4] addresses T1, human Leptin receptor. Put plainly: whole cell binding, displacement of [125I]-hLeptin on HEK293 cells expressing human Leptin receptor; mean, n=4. As to the method: HEK293 cells stably expressing the human Leptin receptor were seeded in poly-D-lysine coated 24 well plates at 200.000 cells per well and cultured for two days in alpha-minimum essential medium (MEM), cell culture media containing 10% heat inactivated fetal calf serum (FCS), 1% penicillin-streptomycin (P/S), 1 mg/ml Zeocin and 1 mg/ml G418 antibiotic at +37° C. in a humidified atmosphere with 5% CO₂. Prior to the experiment, cells were rinsed in pure MEM medium, followed by incubation in Leptin analogues at 10,3,1,0.3,0.1,0.03 and 0.01 nM concentrations for 45 minutes in MEM containing 0.005% polysorbate 20 and 0.1% ovalbumin and [¹²⁵I]-hLeptin 100000 cpm. The cells were washed three times in ice cold MEM and were lysed in lysis buffer containing 1.0% nonidet P-40, 0.5% triton X-100 (C₁₄H₂₂O(C₂H₄O)ₙ) and 1M sodium hydroxide. Samples are transferred to plastic
For orientation: Displacement assays read how much labelled ligand stays bound in the presence of the test substance.

B1: Compound C (protracted rat Leptin: rat Leptin alkylated with compound 2 at the N-terminal amino group) (ligand)
chain: VPIHKVQDDTKTLIKTIVTRINDISHTQSVSARQRVTGLDFIPGLHPILSLSKMDQTLAVYQQILTSLPSQNVLQIAHDLENLRDLLHLLAFSKSCSLPQTRGLQKPESLDGVLEASLYSTEVVALSRLQGSLQDILQQLDLSPEC
modifications: N-terminal amino group alkylated with compound 2 (protractor group: C18 diacid (17-carboxyheptadecanoyl)-gamma-Glu-OEG-OEG-4-formylbenzylamide, attached by reductive alkylation)
notes: also called protracted rLeptin
Take B1: the “Luciferase assay, Mean EC50 nM, 0% HSA added” value in the test with human Leptin receptor [1] worked out at 0.24 nM. Moreover, the “Luciferase assay, Mean IC50 nM, 0.7% HSA added” value with human Leptin receptor [1] worked out at 0.42 nM. In addition, the IC50 is 380 pM in the test with human Leptin receptor [2] and 5930 pM in the test with human Leptin receptor [3].

B2: Rat Leptin (ligand)
chain: VPIHKVQDDTKTLIKTIVTRINDISHTQSVSARQRVTGLDFIPGLHPILSLSKMDQTLAVYQQILTSLPSQNVLQIAHDLENLRDLLHLLAFSKSCSLPQTRGLQKPESLDGVLEASLYSTEVVALSRLQGSLQDILQQLDLSPEC
notes: also called rLeptin; wt rat Leptin
For B2, the “Luciferase assay, Mean EC50 nM, 0% HSA added” value in the test with human Leptin receptor [1] stood at 0.41 nM. For the same molecule, the “Luciferase assay, Mean IC50 nM, 0.7% HSA added” value in the test with human Leptin receptor [1] was 0.52 nM. Besides, the figures for the IC50 with human Leptin receptor [2], with human Leptin receptor [3] and with human Leptin receptor [4] were 490 pM, 880 pM and 1010 pM, respectively.

B3: Compound A (protracted rat Leptin: rat Leptin alkylated with compound 1 at the N-terminal amino group) (ligand)
chain: VPIHKVQDDTKTLIKTIVTRINDISHTQSVSARQRVTGLDFIPGLHPILSLSKMDQTLAVYQQILTSLPSQNVLQIAHDLENLRDLLHLLAFSKSCSLPQTRGLQKPESLDGVLEASLYSTEVVALSRLQGSLQDILQQLDLSPEC
modifications: N-terminal amino group alkylated with compound 1 (protractor group with 16-(tetrazol-5-yl)hexadecanoylsulfamoyl-butyryl, two Glu, OEG, Gly and an aldehyde-derived anchor)
notes: Mw 17190 g/mol
With B3, in the test with human Leptin receptor [1], the “Luciferase assay, Mean EC50 nM, 0% HSA added” value came out at 1.57 nM. In addition, in the test with human Leptin receptor [1], the “Luciferase assay, Mean IC50 nM, 0.7% HSA added” value turned out to be 1.92 nM. Also, the IC50 with human Leptin receptor [2] is 1900 pM; with human Leptin receptor [3] it was 37100 pM; with human Leptin receptor [4], 1760 pM.
